Measured values: patent US20160257763A1
pKd: −log10 of the molar value.

Biological target: FcRn
Experiment: SPR pH 6.0, Ab captured by goat anti-human IgG, FcRn injected

Substance	pKd
L351Y_F405A_Y407V / T366L_K392M_T394W (antibody)	5.30
T350V_L351Y_F405A_Y407V / T350V_T366L_K392L_T394W (antibody)	5.41

More lines, in order of rising pKd, values ahead:

pKd	Substance
5.30	T350V_L351Y_S400E_F405A_Y407V / T350V_T366L_N390R_K392M_T394W (antibody)
5.37	T350V_L351Y_F405A_Y407V / T350V_T366L_K392M_T394W (antibody)
5.39	Y349C_T350V_F405A_Y407V / T350V_S354C_T366L_K392M_T394W (antibody)
